Measured values: paper PMC9371905

Molecular target: SRSF1-RBD (UniProt Q07955 1-203)
Experiment: EMSA

SRSF1-RBD, sequence (Q07955 1-203): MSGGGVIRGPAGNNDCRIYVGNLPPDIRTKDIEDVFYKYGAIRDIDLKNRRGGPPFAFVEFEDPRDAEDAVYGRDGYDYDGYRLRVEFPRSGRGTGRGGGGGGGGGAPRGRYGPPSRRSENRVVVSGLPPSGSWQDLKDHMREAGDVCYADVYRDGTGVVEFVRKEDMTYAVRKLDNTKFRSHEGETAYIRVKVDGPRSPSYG

B1: AdML pre-mRNA (structured_RNA)
RNA: GAGCUCGGUACCCCGUUCGUCCUCACUCUCUUCCGCAUCGCUGUCUGCGAGGGCCAGCUGUUGGGGUGAGUACUCCCUCUCAAAAGCGGGCAUGACUUCUGCCCUCGAGUUAUUAACCCUCACUAAAGGCAGUAGUCAAGGGUUUCCUUGAAGCUUUCGUGCUGACCCUGUCCCUUUUUUUUCCACAGCUGCAGGUCGACGUUGAGGACAAACUCUUCGCGGUCUUUCCAGUACUCUU
  binding result: binds
